The NTF2 design screens of Basanta et al. (2020)

Assay: protease stability score; higher = more stable; yeast display proteolysis, trypsin and chymotrypsin;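 also: relative to predicted unfolded state with 0 unfolded-like and 1 meaning tenfold more protease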

Sequence | protease stability score
EETREASRIALEIFIRDLVTGNEDSLERLADPDTKFIINGRNYHGMEFLREEIRKWLERFKNIRVEVKVHHQRVFENHIEMDGRLDFNYDGQKEILEVRLFMVKFNGKWYIHSIEIR | 2.24
SEEEEMAHRVLEILLYALRTGDEKWMRKLVDPNVRLHVNGVEFHGRDEYTKFLHEHINRFDHFHSLTVTEIRHQGDFIVLHTILNIQWDGRSTRIDIHIIVLKVNGRWLLHSSSIE | 1.25
DEHTDAVETTWKRLLEDERTGNEDSLERLADPNYRVIINGKHYHGMEHSLHILSEWRITDHEIKDVEIQGEKAHIDGRFNGIIDGKHLNIHVLILIEKVDGRWIIKSVIFK | -0.096
DEEEEDAERLLRELITWLYTGDFESLEKLMDPTTKLIQGDKTFIGREYLSKLFHDWGHTNVRAKLEDIKVVNGQVHIYGRLHYGDKTSETHFIVRKVNGKWLIKIVEFR | 1.62
SEDEHRSHLLLKEFEHLMRTGNEEEIERNLDPHTRLEFNGREFHGREDAREVWRRFGFKHLDSLRFHHLEIQGDKIIIDSRTEMLFNGVHTITRVEFHALKIDGRWLSTELRIG | 0.919
DEEKRDAREFLHLLFHAMITGDEDLVRHLADPHVKLDVNGRELHGWELFLTWFKRLLEEIRLTDIDVHHIELQGNKIILDTRLHVRVGDKEVDIHTEFHVVKVNGKWRLKTMRTE | 2.61
DRERLADELRRRLEKVMTTGDPTELDKLMDPNARILYGDQKFHGREHVKEFAKTLNDQYDHVTIRLVSYDIKNGEIHIVVDVVFRHNGQTRTKRINFVARVHGDKVKIESINIP | 1.48
SEDERDAKMFIDLLNEAMHTGDEQIIKDLVDPHVKIFVGDKIYIGWERYRHMLEEIRIHRWDSEIKRYRVFDGRLEVEGVLHFDVEVNGKRREISTHVELHFDKFDGRWIVREISVH | 1.76
DEVEHLLELMFRLIIETIRTGDEKLLEHLVDPNAKSLIDGRDYHGREMARHWHNRVDHLNDVHINDRKVQGEKIELDVRVDGRVGDKRIDERVHIIAFKINGQWIIHKMEVR | 0.991
SEIEHNLRLAEELLEKVTQTGNEELLHDLIDPNVRFYINGRDFVGREKNIKVFRSWGIDRVHFESEHIDIQGNKINFHGQINVNGKSMDTQIIAVKVNGRWLIKESWVD | 0.565
DEEERLEREIVDHLWTNWYTGDEERMEELADPNVRLEINIGDKHIRLHGRHELLRHLHEWKERFKNIKIRLHDYRVIDGRVHLHVVYRFDGRHKTMHIELYIVNGRIKEIIHRES | 1.66
DIEERDAEEAVRRWLHFLQTGDEDWLREQLDPNTRIDIDGREIHGMEEVVNVLLRESRHLGVDVLSFELRHVDRQGDKIIVYGRIRLRVNGRDTEIEVILYMVKVNGVWLMKSMEFR | 1.89
SEDEELFKRAIEKLIHDLLTGNFEMLEHLLDPHTRVDFNGKIMHGREFVEDIRERFPNLKLELRIDDSSVINGRANIIGTLHFNVNGKFSTHEVHYHVNKFNGKWYIEEVRIK | 1.32
HEEEHVAKEIVEILYHAIITGDEDLIKELMDPNVRLDINGKQVHGRDEWIKELRHLRFRHMKLEVKAVEVVDGRIHSDVILHVDGHFDGRTRRLTIEVHWIIFKINGRWHIQSVEIR | 2.31
RSEEHEAKDKVREWVEAYLTGDEDHLRRLHDPDMRFNWNGVEIHGMEEFSHWMHKYMYELGVDHTHVTVRHIEFYGDKIHADTKLFIRQGDKEREHHSQVHIEVINGQFKRLEIREH | 0.829
SESQEVLEMAIRIWRHTVKTGDEREIAELMDPHVRIEVGDKEFIGRELVSHWFLRFSEHMRIHDIEIKRYHVVGNKAHIHTVVDGEVDGKRDYTEVELIVEKVDGRWLIRSMKIR | 2.49
SDQDHLTELAEHLFEYSLETGDEELMDKNFDPNMKLEVGEKHEHGRHVAETFSRRFDVVKSIEMKHVTTINGVAEIDGHIDGNFNGVDIRTDVRLVSLKIDGRWFIHSITFV | 0.319
TEEEHLMKEMLDLWVEALMTGDEKLLSELMDPNTRFHLRYGDFLQDRHGRHIINHIIRHWRFHVFKIEDTKVFNGRAIADTHLDVEIDGRRVRTRTKVDLVTINGKIERLDLEID | 0.902

Sequence | protease stability score
DEHRKHAEDIFRLWLKAVKTGDEEHILDLMDPHVRLIILVGDKEIHLHGREEMKKENERLRHEWGVDRIRLEITRLDVQGDKIHSDGIDIFNGRNFRVKHHMKVVNGRVEEIKIEFE | 0.462
SEEEELVREHIKRVIHSYETGDWKSFLELFDPNVRLRVGDKELHGRELFIHWLVRLIELLGINHFELILHDVELQGNKAHSDIHSNLTVGDKTEHRKVHLFNLKVNGRWRTQSEHIE | 1.36
DEEEHLARKIATIMIHTLITGNEEEMRRLADPTTRFHDEDHTFHGMEEYNRFIKEWRERFPGVKEEWKIRHIHVINGVAHFDIELRIIVGDKEVSDRVEFIIVVVDGRVKSFELRHK | 2.15
DDETDRSEKVAQMFVDLLTTGDWERLRHLMDPHVRMDINGQESHGRENVFRFFQKIRERLGLDRFHIEVTHIDVQGDKALWHGTLNINGQEHEVIIRIDVVDGRWHEVRMEVR | 2.62
DEHREIARRHTEVWWKLLLTGDEHLLRELADPHVRLETEHEEVHGREEVVRFLTEEIMKVKNIRLELKRIEVQGDKIDVEGTRHIDGVTIRVILYIHKINGRWVVQQIQLD | 1.29
DEEEEMAKKILDDLTHLLETGDEEVFRHLADPNVKVDELVNGRKIHRHGRQDWREIFKEMRLRHIHIRRVHVQGDKLHNDIEVDGDFNGRSHRDRTELILVIVDGRLRTIEIHVN | 1.18
DEEDELSEELSRFSLKTLRTGDEDLLSRNMDPHVRMDIDGQDLHGREHVIKFLKDWNRMFGIKHTELKHVRIQGNWIEIHARIQVGDKEMDLRIYAVKIDGRWLVHSIEVEKK | 0.182
HEEEKHREDFVRTWLHNLITGNFEHHRHLADPRVRIRIIVDGREQRIHGREEMIRWFREWMELFPGYYRHIEHSDIIGEYVHIEGQLEVNGKRLDVHIHLEVINGKIKHLTIDSR | 1.09
SEEDDQAEEFARKMITDFLTGNWKKMMDLFDPNVRLRWHVDGRDKHHIGREVVSEILRRYVEEIRIHSISIESVENYDGVSIVHSHYEWEVNGQKRETHVLLEFVIINGRARSISIHIH | 1.11
DEEEHIERTFKDLFEHALETGDEHLLKRLLDPHARFDINGRDFHGREEVRRFWEETEKKLGIKHSEFRFRRRDHQGDFVRIDLHVIIFIGDKIEHREVEFFLTKIDGVWMIREVRVR | 0.613
SELEELTEEAVKHILHIWETGDEEMSHDLVDPHVRVHVNGQKYHGRENAVEHISKLKGAKWHLRRFEVIDGKIHVDGQFHFNGRHHEVRVVIRKINGRWLIHEIQID | 1.77
DDEEREVHKATEDWFKLVKTGNEEVRHELLDPHTRLIIGDKEFHGREELLRWERELGYKFKTFIITDIKVQGNKAIIHGVDVGTINGVERHLDVRLLILKVNGKWITREIEVR | 1.62
SEEQTRLEEETRLLIELLTTGNEEEWARMFDPHARVDLHIGDKTIHSIGRENISELVRLLRHWLGVNHNHSTQLRVIDGVSVLHTESKVGDKHSKVTWIFVIVDGRLKTMEIRVRID | 1.33
DEEEKHARKVFRELEESLRTGDEHSMRRLLDPHTKIIINGQEHVGMEHADKFVHELRLKDSKIRHLEMHVIDGQAHLKMDVDVEGNFNGRDTRDRVTEIWIVDKINGRWLVSEVRFVKR | 1.13
TEEEHLLKKLAELVWEAVETGDEDFLKKLVDPHTRLHVDGREHHGREDFIEILTRMGVDHHRLEHFRVIDGKLFIDGHFNFNGRYFRVHIIFIIINGRAKEFWMRTE | 1.66
DETKHHHDRLFEEEAKAIATGDWEKLKELLDPHVRFEVGNKEIHGMETVLEEIERDLKRLGVTKQEVRIVIDKVDIQGEKIVSDFTLRLHFDGVTIEHKVHVIEVKIDGRWLIQSIRIE | 1.53
DEDTRDAEHISRMMLHAFITGDERLIEKNADPDTRIDVNGVDYHGREEMVKLFKRWLDELGVNHMEIKETTTHVYDGRVEVVLHLHVDYNGRRHHLIIIIINDKFDGQWRIRSLEFEER | 1.37
SEREDITHEFIQKTIKAIHTGDFILLLRLLDPDMQFDIGDKEFIGRERLREFMEEWRVRVKHYEIEHVRLQGDKLETHTHEHREIWIGDKVVHERFDRKIEITKVDGQWAIKRVEII | 0.284
